The text below walks through data of US20240084011A1 (NANTBIO, published 2024).

For assay [1], the target named is T1, recombinant human CTLA-4 protein (human, UniProt P16410 36-161).
T1 construct: Recombinant protein used as analyte in SPR/Octet; also called hCTLA-4; CD152
T1 sequence (looked up): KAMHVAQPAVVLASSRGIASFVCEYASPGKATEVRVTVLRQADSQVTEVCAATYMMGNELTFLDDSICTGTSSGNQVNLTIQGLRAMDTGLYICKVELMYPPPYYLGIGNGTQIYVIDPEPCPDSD
In words: SPR (Pioneer FE) or Octet (Red96e), 25 C; IgG captured by anti-human Fc or AHC sensor, hCTLA-4 as analyte.
Text: (§1) All values shown in Table 5 are ×10⁻⁹ M. Antibodies were captured on the chip surface using anti-human Fc antibody (SPR) or AHC sensor (Octet).

The target of assay [2] is T2, recombinant mouse CTLA-4 protein (mouse, UniProt P09793 36-161).
T2 construct: Recombinant protein used as analyte in SPR/Octet; also called murine CTLA-4; mCTLA-4
In words: SPR (Pioneer FE) or Octet (Red96e), 25 C; IgG captured by anti-human Fc or AHC sensor, mCTLA-4 as analyte. A general note: BLI is a label-free optical method that tracks binding on a fibre tip over time.
Text: as §1

Assay [3] has as its target T1, recombinant human CTLA-4 protein. In words: SPR (Pioneer FE) or Octet (Red96e), 37 C; IgG captured by anti-human Fc or AHC sensor, hCTLA-4 as analyte.
Text: as §1
In assay [4] the target is T2, recombinant mouse CTLA-4 protein. As to the kind of experiment: SPR (Pioneer FE) or Octet (Red96e), 37 C; IgG captured by anti-human Fc or AHC sensor, mCTLA-4 as analyte.
Text: as §1

B1: IgG antibody 78-8D2 HC / 78-8 LC (antibody, V domains shown)
VH: EVQLVESGGGLVQPGGSLRLSCAASGFTFSSYVMHWVRQAPGKGLEWVSAITWSGRGTYYADSVKGRFTISRDNSKNTLYLQMNSLRAEDTAVYYCARGRLFGLALYGEAFDVWGQGTLVTVSS
VL: DIQMTQSPSSLSASVGDRVTITCQASKDISNYLNWYQQKPGKAPKLLIYDASNLETGVPSRFSGSGSGTDFTFTISSLQPEDIATYYCQQFNSFPLTFGQGTKVEIKR
In general, Kd refers to the equilibrium constant for the complex coming apart. As to B1, the dissociation constant (Kd) in assay [1] is 0.41 nM; in assay [2], 0.32 nM; in assay [3] it was 0.67 nM; in assay [4] it was 0.4 nM.

B2: IgG antibody 78-24D1V HC / 78-24 LC (antibody, V domains shown)
VH: EVQLVESGGGLVQPGGSLRLSCAASGFTFTSYSMHWVRQAPGKGLEWVSGISGSGRSTSYADSVKGRFTISRDNSKNTLYLQMNSLRAEDTAVYYCARDLMAFNLVRAGGFDVWGQGTLVTVSS
VL: DIQMTQSPSSLSASVGDRVTITCQASQDISNYLNWYQQKPGKAPKLLIYDASNLETGVPSRFSGSGSGTDFTFTISSLQPEDIATYYCQQGDAWPWTFGQGTKVEIKR
For the molecule B2, the Kd in assay [1] came out at 1.6 nM; in assay [2], 0.18 nM; in assay [3], 1.5 nM; in assay [4], 0.23 nM.

B3: IgG antibody 78-24D22V HC / 78-24 LC (antibody, V domains shown)
VH: EVQLVESGGGLVQPGGSLRLSCAASGFTFPSYSMHWVRQAPGKGLEWVSGISGSGWSTSYADSVKGRFTISRDNSKNTLYLQMNSLRAEDTAVYYCARDLMAFNLVRAGGFDVWGQGTLVTVSS
VL: DIQMTQSPSSLSASVGDRVTITCQASQDISNYLNWYQQKPGKAPKLLIYDASNLETGVPSRFSGSGSGTDFTFTISSLQPEDIATYYCQQGDAWPWTFGQGTKVEIKR
B3: the Kd amounted to 1.4 nM in assay [1], 0.19 nM in assay [2], 1.3 nM in assay [3] and 0.27 nM in assay [4].

B4: IgG antibody 78-8D22 HC / 78-8 LC (antibody, V domains shown)
VH: EVQLVESGGGLVQPGGSLRLSCAASGFTFSSYVMHWVRQAPGKGLEWVSAISWSGSGTYYADSVKGRFTISRDNSKNTLYLQMNSLRAEDTAVYYCARGRLFGLARYGEAFDVWGQGTLVTVSS
VL: DIQMTQSPSSLSASVGDRVTITCQASKDISNYLNWYQQKPGKAPKLLIYDASNLETGVPSRFSGSGSGTDFTFTISSLQPEDIATYYCQQFNSFPLTFGQGTKVEIKR
Take B4: the Kd came to 0.46 nM in assay [1], 0.39 nM in assay [2], 0.44 nM in assay [3] and 0.53 nM in assay [4].

B5: IgG antibody 78-24D17V HC / 78-24 LC (antibody, V domains shown)
VH: EVQLVESGGGLVQPGGSLRLSCAASGFTFSSSSMHWVRQAPGKGLEWVSGISGSGGSTSYADSVKGRFTISRDNSKNTLYLQMNSLRAEDTAVYYCARYLMSFNLVRTSWFDVWGQGTLVTVSS
VL: DIQMTQSPSSLSASVGDRVTITCQASQDISNYLNWYQQKPGKAPKLLIYDASNLETGVPSRFSGSGSGTDFTFTISSLQPEDIATYYCQQGDAWPWTFGQGTKVEIKR
On to B5, for which the Kd is 0.34 nM in assay [2] and 0.33 nM in assay [4].

B6: IgG antibody 78-8D4 HC / 78-8 LC (antibody, V domains shown)
VH: EVQLVESGGGLVQPGGSLRLSCAASGFTFSSYVMHWVRQAPGKGLEWVSAITWSGGGTYYADSVKGRFTISRDNSKNTLYLQMNSLRAEDTAVYYCARGRLFGLVRYGEAFDVWGQGTLVTVSS
VL: DIQMTQSPSSLSASVGDRVTITCQASKDISNYLNWYQQKPGKAPKLLIYDASNLETGVPSRFSGSGSGTDFTFTISSLQPEDIATYYCQQFNSFPLTFGQGTKVEIKR
As to B6, the Kd in assay [1] was 0.39 nM; in assay [2], 0.27 nM; in assay [3] it was 0.39 nM; in assay [4], 0.27 nM.
